This passage reports fold ELISA reactivity over the phosphate buffer control results from patent publication US20030138450A1.

The target of this assay is AMA1/E, refolded recombinant Plasmodium falciparum (3D7) AMA-1 ectodomain (amino acids 83-531) with N- and C-terminal histidine tags (Plasmodium falciparum 3D7) (UniProt P22621). As to the kind of experiment: ELISA on plate-coated refolding mixtures of r-AMA1/E (GSH/GSSG 1/0.1 mM and 1/0.25 mM), against r-AMA1/E diluted in phosphate buffer with EDTA alone.

For the substance rat monoclonal antibody 4G2dc1, the fold ELISA reactivity over the phosphate buffer control was 5 fold.
